Measurements published in patent publication US7592156B2, “Synthetic dog/human chimeric C-C chemokine receptor 2B” (Wyeth, priority 2006, dated 2009).
pEC50: −log10 of the molar value.

Legend:
human CCR2B = target: T1, human CCR2B (Homo sapiens, UniProt P41597); test: FLIPR calcium mobilization agonist assay in THP-1 cells; type: cell-based; settings: endogenous human CCR2B expression
T1 construct: THP-1 cells, with their endogenous expression of the human receptor; endogenous in cells; host or cells: THP-1 (human monocyte cell line)
T1 sequence (P41597 1-360 isoform P41597-2): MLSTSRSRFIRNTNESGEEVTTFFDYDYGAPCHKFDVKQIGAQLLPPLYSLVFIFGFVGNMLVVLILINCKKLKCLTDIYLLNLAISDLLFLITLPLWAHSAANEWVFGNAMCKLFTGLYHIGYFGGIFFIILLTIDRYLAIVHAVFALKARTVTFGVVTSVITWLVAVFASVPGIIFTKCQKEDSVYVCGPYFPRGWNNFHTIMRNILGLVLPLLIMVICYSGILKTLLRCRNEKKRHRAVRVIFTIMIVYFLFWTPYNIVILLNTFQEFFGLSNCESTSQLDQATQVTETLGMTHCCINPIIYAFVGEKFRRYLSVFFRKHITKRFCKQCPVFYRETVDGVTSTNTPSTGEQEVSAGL

chimeric dog-human CCR2B = target: T2, chimeric dog-human CCR2B (Homo sapiens, UniProt P41597, A111V/A286I/C181V/C75S/D36S/E105G/E278K/F108L/F271S/G175R/G191S/G197A/G224A/G273N/G41A/I128T/I163V/I208V/I217V/I263L/I300V/I40V/I93L/K180T/K183I/K38R/L115S/L166M/L274V/L76M/L95I/L97F/N110E/N199K/N207S/N266S/P195Q/Q43G/R196Q/R240K/R243K/S101Y/T247V/T257A/T287M/V107L/V162G/V173L/V187F/V189S/V244L/Y188S/Y193Q/Y259N); test: FLIPR calcium mobilization agonist assay in CHO-K1 cells expressing chimeric dog-human CCR2B; type: cell-based
T2 construct: expressed in transfected cells
T2 sequence (P41597 1-360 isoform P41597-2 D36S/K38R/I40V/G41A/Q43G/C75S/L76M/I93L/L95I/L97F/S101Y/E105G/V107L/F108L/N110E/A111V/L115S/I128T/V162G/I163V/L166M/V173L/G175R/K180T/C181V/K183I/V187F/Y188S/V189S/G191S/Y193Q/P195Q/R196Q/G197A/N199K/N207S/I208V/I217V/G224A/R240K/R243K/V244L/T247V/T257A/Y259N/I263L/N266S/F271S/G273N/L274V/E278K/A286I/T287M/I300V): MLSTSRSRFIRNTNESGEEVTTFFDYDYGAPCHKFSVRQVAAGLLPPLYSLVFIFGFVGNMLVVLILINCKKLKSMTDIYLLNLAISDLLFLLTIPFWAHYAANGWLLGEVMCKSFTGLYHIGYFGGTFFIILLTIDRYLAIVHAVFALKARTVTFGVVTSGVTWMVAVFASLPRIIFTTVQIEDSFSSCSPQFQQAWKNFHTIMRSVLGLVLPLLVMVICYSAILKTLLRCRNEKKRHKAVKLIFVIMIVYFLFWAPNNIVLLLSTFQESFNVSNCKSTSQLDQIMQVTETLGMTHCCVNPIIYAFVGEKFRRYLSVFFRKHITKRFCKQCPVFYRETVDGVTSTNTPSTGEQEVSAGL
Method: The chimeric CCR2B/cDNA3.1 plasmid of Example 1 was expressed in CHO-K1 cells using the Lipofectamine-Plus reagent (Invitrogen, Carlsbad, Calif., USA) according to manufacturer's instructions, and the resulting stable cell lines following selection with the antibiotic G418 were assayed for MCP-1-dependent calcium mobilization in a FLIPR assay. Cells were plated at 15,000 per well in a 384-well assay plate one day prior to assay. Calcium-3 indicator dye (Molecular Devices, Sunnyvale, Calif., USA) was added 1 hr prior to assay, and cells were incubated at 37° C. For the agonist assay, human MCP-1 was added to cells, followed immediately by reading of calcium mobilization on the FLIPR. RFU counts (Max-Min) were recorded for each MCP-1 concentration assayed. For the antagonist assay, the antagonist was added to the cells 20 min prior to addition of MCP-1. The MCP-1 activation of calcium mobilization in CCR2B/CHOK1 cells of Example 2 was extended to include examination of the effects of mouse and canine MCP-1 (FIG. 4A). […] The qualitative similarity of the results in the CHOK1 cells expressing the chimeric receptor and THP-1 cells, with their endogenous expression of the human receptor, lends evidence that the chimeric receptor faithfully recapitulates the activation pharmacology of the native receptor.

pEC50 (human CCR2B) | pEC50 (chimeric dog-human CCR2B) | Substance
7.28 | 6.86 | cMCP-1: canine monocyte chemoattractant protein-1 (chemokine)
7.52 | 7.42 | mouse MCP: mouse monocyte chemoattractant protein-1 (chemokine)
